Source: patent US20220275357A1, “CAPSULE PROTEIN AND MULTIMERIC COMPLEX COMPOSITION THEREOF, AND PHARMACEUTICAL COMPOSITION USING SAME” (UNIVERSITY PUBLIC CORPORATION OSAKA, priority 2019, published 2022)

B1: mutant L-PGDS: human L-PGDS variant SEQ ID NO: 2 with C45A and C147A substitutions, GS added to N-terminus (protein)
chain: GSAPEAQVSVQPNFQQDKFLGRWFSAGLASNSSWLREKKAALSMAKSVVAPATDGGLNLTSTFLRKNQCETRTMLLQPAGSLGSYSYRSPHWGSTYSVSVVETDYDQYALLYSQGSKGPGEDFRMATLYSRTQTPRAELKEKFTAFAKAQGFTEDTIVFLPQTDKCMTEQ
modifications: N-terminal GS added; Enzyme inactivation Mutant
B2: barrier-attached mutant (protein)
chain: GSAPEAQVSVQPNFQQDKFLGRWFSAGLASNSSWLREKKAALSMAKSVVAPATDGGLNLTSTFLRKNQCETRTWLLQPAGSLGSYSYRSPHWGSTYSVSVVETDYDQYALLYSQGSKGPGEDFRMATLYSRTQTPRAELKEKFTAFAKAQGFTEDTIVFLPQTDKCMTEQ
modifications: Barrier Mutant

Columns and labels:
Type in all cases: physicochemical
[1] = Drug releasing capacity: equilibrium dialysis of SN-38-loaded capsule proteins
Method: (§1) With a dialysis membrane (Dialysis Membrane, Size 27 Wako molecular weight cut-off: 14,000), each 5 mL of samples was each dialyzed against 150 mL of PBS as an external solution in an incubator at 37° C. for 72 hours. Each of the samples included the solution of SN-38/mutant L-PGDS, SN-38/barrier-attached D-clip mutant or SN-38/targeting barrier-attached D-clip mutant. The samples were prepared to contain 50 uM of SN-38 and 50 uM of the respective capsule proteins.
(§2) At 0, 1, 3, 6, 8, 12, 24, 36, 48, 60, and 72 hours after the start of dialysis, 500 μL of the external solution was sampled, and the same amount of PBS was added instead. SN-38 concentration in the sampled external solutions was measured with a fluorescence spectrophotometer F-7000 (HITACHI; excitation wavelength: 365 nm; measuring wavelength: 380 to 600 nm; and monitoring temperature: 37° C.).
Subsequently, drug release function in response to a reducing environment of the barrier-attached D-clip mutant and the targeting barrier-attached D-clip mutant was evaluated by equilibrium dialysis method in the same manner as described above. PBS and 10 mM DTT/PBS solutions were used as the external solutions for dialysis. The external PBS and 10 mM DTT/PBS solutions simulated oxidizing and reducing environments, respectively.
The horizontal axis represents reaction time (hr), and the vertical axis represents SN-38 concentration (nM). Error bars represent the standard error of the mean, or mean±standard error (n=3). The abbreviations or symbols in the figure have the following meanings: “SN-38/L-PGDS” or “●” represents SN-38/mutant L-PGDS; “SN-38/Capsule” or “▴” represents SN-38/barrier-attached D-clip mutant; and “SN-38/Cap-sCRGDK” or “▪” represents SN-38/targeting barrier-attached D-clip mutant. The symbols “Δ” and “□” with“+10 mM DTT” represent the results of the pharmaceutical compositions, i.e.“SN-38/Capsule” and “SN-38/Cap-sCRGDK” in the presence of 10 mM DTT, respectively. The addition of DTT (Dithiothreitol) allows the solutions to have a strong reducing environment. […]

[2] = Equilibrium dialysis of dipyridamole-loaded capsule proteins (holding force); conditions: dipyridamole encapsulated instead of SN-38, external solution PBS, FIG. 10
Method: as §1, §2
Dipyridamole is a poorly water-soluble antianginal drug. The external solution was PBS. Referring to FIG. 10, the horizontal and the left vertical axes represent the reaction time (hr) and dipyridamole concentration (nM), respectively. In addition, the right vertical axis represents the release rate (%), or a value converted from the concentration on the left vertical axis.

[3] = Size measurement by small-angle X-ray scattering (SAXS); conditions: 25° C.; for Rg: radius of gyration from Guinier region
Method: Size of the obtained octameric composition was measured by small-angle X-ray scattering (SAXS). For comparison, size of the mutant L-PGDS was also measured.
SAXS data collection was carried out at BL40B2, a beamline in the SPring-8 synchrotron radiation facility (Sayo-gun, Hyogo). The X-ray wavelength was tuned to 1.000 A (angstrom), the sample-to-detector distance was set to 2.193 m, and the experiments were performed at 25° C. The exposure times for each measurement were 20 to 50 s. Scattering intensity was recorded with PILATUS-2M (RIGAKU, Tokyo) as a detector.
A sample cell with a thickness of 3.0 mm was used to maximize scattering of X-ray. The windows of the cell were made of 0.02 mm thick quartz plates. To avoid systematic errors, the inventor measured the sample (protein) and buffer solutions alternately. 25 μL of a sample solution was placed in the cell for its data collection. The solution was removed from the cell; and the cell was then washed 3 times with a buffer solution before data collection of the next sample solution.
Two-dimensionally recorded scattering patterns of the protein sample and the buffer solutions were transformed to a one-dimensional profile by circular averaging. Contributions to scattering intensities from the solvent were eliminated from the raw data of the sample solutions by subtracting the intensity profile obtained for the buffer solution. Scattering profiles in the small-angle region were analyzed by Guinier's approximation for monodispersive systems: The scattering intensity (I (S,C)) as a function of reciprocal vector (S) and protein concentration (C), is expressed by the forward scattering intensity (I(0,C)) and the radius of gyration Rg(C) (See the following formula (1)).
wherein, 2θ represents the scattering angle relative to the incident beam, and λ represents the X-ray wavelength.
The radius of gyration Rg for each sample solution was calculated from Guinier region in its scattering profile. […]

Molecule	concentration of SN-38 in the external DTT/PBS solution ([1]; 10 mM DTT/PBS, reached within shorter reaction time, then almost a plateau, FIG. 9(a)) [nM]	dipyridamole concentration in external solution [2]	Dmax [3] [nm]	Rg ([3]; listed as Monomer) [nm]	Rg ([3]; listed as monomer (mutant L-PGDS)) [nm]	SN-38 concentration in the external DTT/PBS solution ([1]; 10 mM DTT/PBS, at the first 48 hours of dialysis, FIG. 9(b))	concentration of SN-38 in the external solution PBS ([1]; PBS, at the end of the monitoring period, FIG. 9(b)) [nM]
B1	2000	increased over the reaction time	4.75	1.8 ± 0.04	1.8±0.04	–	–
B2	–	increased only to the vicinity of the detection limit	–	–	–	approximately 2.0 μM	≤ 1000
